Source: publication doi:10.1101/2024.04.06.588283

Molecular target: MBP-PrLD (C-terminal half of FCA containing prion-like domains) (Arabidopsis)
Test: SEC-MALS

“MBP-PrLD (C-terminal half of FCA containing prion-like domains) (domain or fragment)” was tested, and the stoichiometry N was over 100 molecules.
